Test results taken from US20230129812A1, “COMPOSITIONS AND METHODS FOR TREATING PULMONARY HYPERTENSION” (Acceleron Pharma Inc., priority 2020, published 2023).
Changes are numbered by the printed parent chain. Numbers in names are those of the source.

T1: GDF8 (Homo sapiens, UniProt O14793)
T1 sequence (O14793 267-375): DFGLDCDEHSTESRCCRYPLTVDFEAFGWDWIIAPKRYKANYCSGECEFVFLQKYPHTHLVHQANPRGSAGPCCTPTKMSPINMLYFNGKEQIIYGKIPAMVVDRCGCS

T2: activin A (Homo sapiens, UniProt P08476)
T2 sequence (P08476 311-426): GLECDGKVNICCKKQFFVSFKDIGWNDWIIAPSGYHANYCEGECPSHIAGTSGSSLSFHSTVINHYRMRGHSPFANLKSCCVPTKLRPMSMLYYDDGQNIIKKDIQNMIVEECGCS

T3: GDF11 (Homo sapiens, UniProt O95390)
T3 sequence (O95390 299-407): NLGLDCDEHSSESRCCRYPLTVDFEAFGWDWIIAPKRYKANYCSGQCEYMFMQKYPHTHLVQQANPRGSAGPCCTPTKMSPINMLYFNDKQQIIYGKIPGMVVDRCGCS

T4: activin B (Homo sapiens, UniProt P09529)
T4 sequence (P09529 293-407): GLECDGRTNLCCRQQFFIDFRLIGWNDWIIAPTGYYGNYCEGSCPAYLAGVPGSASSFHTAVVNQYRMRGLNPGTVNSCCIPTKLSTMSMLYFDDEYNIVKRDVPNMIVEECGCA

B1: ActRIIB(20-134)-hFc: extracellular domain of human ActRIIB (residues 20-134, R64) fused to a human Fc domain with a minimal linker (protein)
chain: GRGEAETRECIYYNANWELERTNQSGLERCEGEQDKRLHCYASWRNSSGTIELVKKGCWLDDFNCYDRQECVATEENPQVYFCCCEGNFCNERFTHLPEAGGPEVTYEPPPTAPTGGGTHTCPPCPAPELLGGPSVFLFPPKPKDTLMISRTPEVTCVVVDVSHEDPEVKFNWYVDGVEVHNAKTKPREEQYNSTYRVVSVLTVLHQDWLNGKEYKCKVSNKALPVPIEKTISKAKGQPREPQVYTLPPSREEMTKNQVSLTCLVKGFYPSDIAVEWESNGQPENNYKTTPPVLDSDGSFFLYSKLTVDKSRWQQGNVFSCSVMHEALHNHYTQKSLSLSPGK
B2: ActRIIB(L79E 20-134)-hFc: alternative form with a glutamate rather than an aspartate at position 79 (protein)
chain: B1 chain with L60E
B3: ActRIIB(L79D 20-134)-hFc: ActRIIB amino acids 20-134 with an L79D substitution fused to a human Fc domain (protein)
chain: B1 chain with L60D
B4: ActRIIB(A24N 20-134)-hFc: ActRIIB-Fc variant with A24N substitution, residues 20-134 (protein)
chain: B1 chain with A5N
B5: ActRIIB(R64K 20-134)-hFc: ActRIIB-Fc variant with R64K substitution, residues 20-134 (protein)
chain: B1 chain with R45K

These molecules were tested against T1, GDF8 (assay: A-204 reporter gene assay, pGL3(CAGA)12 luciferase). Conditions: not given.
Type: cell-based
Source text: (§1) An A-204 reporter gene assay was used to evaluate the effects of ActRIIB-Fc proteins and ActRIIB variant Fc fusion polypeptides on signaling by GDF-11 and activin A. Cell line: human rhabdomyosarcoma (derived from muscle). Reporter vector: pGL3(CAGA)12 (described in Dennler et al, 1998, EMBO 17: 3091-3100). The CAGA12 motif is present in TGF-beta responsive genes (e.g., PAI-1 gene), so this vector is of general use for factors signaling through SMADs.
(§2) Day 1: Split A-204 cells into 48-well plate.
(§3) Day 2: A-204 cells transfected with 10 ug pGL3(CAGA)12 or pGL3(CAGA)12(10 ug)+pRLCMV (1 pg) and Fugene.
(§4) Day 3: Add factors (diluted into medium+0.1% BSA). Inhibitors need to be preincubated with factors for 1 hr before adding to cells. Six hrs later, cells were rinsed with PBS and lysed.
(§5) This is followed by a luciferase assay.
As described below, ActRIIB variants were also tested in this assay.
In addition, an A-204 Reporter Gene Assay was used to evaluate the effects of ALK4-Fc:ActRIIB-Fc heterodimer and ActRIIB-Fc:ActRIIB-Fc homodimer on signaling by activin A, activin B, GDF11, GDF8, BMP10, and BMP9. Cell line: Human Rhabdomyosarcoma (derived from muscle). Reporter vector: pGL3(CAGA)12 (as described in Dennler et al, 1998, EMBO 17: 3091-3100). The CAGA12 motif is present in TGFβ responsive genes (PAI-1 gene), so this vector is of general use for factors signaling through Smads. An exemplary A-204 Reporter Gene Assay is outlined below. • Day 1: Split A-204 cells into 48-well plate. • Day 2: A-204 cells transfected with 10 ug pGL3(CAGA)12 or pGL3(CAGA)12(10 ug)+pRLCMV (1 ug) and Fugene. • Day 3: Add factors (diluted into medium+0.1% BSA). Inhibitors need to be pre-incubated with Factors for about one hr before adding to cells. About six hrs later, cells are rinsed with PBS and then lysed.
Following the above steps, a Luciferase assay was performed.

Molecule	inhibition of GDF8 signaling
B1	potent inhibitor

What follows are molecules tested against T2, activin A (assay: A-204 reporter gene assay, pGL3(CAGA)12 luciferase). Conditions: A-204 reporter gene assay.
Type: cell-based
Source text: as §1, §2, §3, §4, §5
(§6) Activity of ActRIIB-Fc proteins and ActRIIB variant Fc fusion polypeptides was tested in a cell-based assay as described above. Some variants were tested in different C-terminal truncation constructs. As discussed above, truncations of five or fifteen amino acids caused reduction in activity. […]

Molecule	inhibition of activin A signaling
B1	potent inhibitor
B2	substantial loss of activin A inhibition
B3	substantial loss of activin A inhibition
B4	equivalent to the wild-type molecule

Same assay, conditions: Table 9; cell-based A-204 assay

Molecule	Activin Inhibition Activity
B1	+++ (Good (wild-type) activity (roughly 1 × 10^−8 KI))
B2	+ (Poor activity (roughly 1 × 10^−6 KI))
B5	+++ (Good (wild-type) activity (roughly 1 × 10^−8 KI))
B3	+ (Poor activity (roughly 1 × 10^−6 KI))
B4	+++ (Good (wild-type) activity (roughly 1 × 10^−8 KI))

These molecules were tested against T3, GDF11 (assay: Biacore ligand affinity of ActRIIB-hFc forms, steady-state affinity fit). Conditions: Table 12; Kd by steady-state affinity fit; read-out: GDF11 (Kd e−11).
Type: binding
Procedure: (§7) Affinities of several ligands for ActRIIB(25-131)-hFc and its full-length counterpart ActRIIB(20-134)-hFc were evaluated in vitro with a Biacore™ instrument, and the results are summarized in Table 8 below. Kd values were obtained by steady-state affinity fit due to very rapid association and dissociation of the complex, which prevented accurate determination of kon and koff. ActRIIB(25-131)-hFc bound, for example, activin A, activin B, and GDF11 with high affinity.
(§8) The affinity of ActRIIB variants and other ActRIIB-hFc proteins for several ligands was evaluated in vitro with a Biacore™ instrument. Kd values were obtained by steady-state affinity fit due to the very rapid association and dissociation of the complex, which prevented accurate determination of kon and koff.

Molecule	Kd
B1	0.036 nM
B3	0.123 nM

These molecules were tested against T4, activin B in the same assay as above. Conditions: Table 12; Kd by steady-state affinity fit; read-out: Activin B (Kd e−11).
Type: binding
Procedure: as §7, §8

Molecule	Kd
B1	0.012 nM
B3	0.788 nM

What follows are molecules tested against T2, activin A in the same assay as above. Conditions: Table 12; Kd by steady-state affinity fit; read-out: Activin A (Kd e−11).
Type: binding
Procedure: as §7, §8

Molecule	Kd
B1	0.016 nM
B3	13.5 nM

What follows are molecules tested against T3, GDF11 (assay: A-204 reporter gene assay, pGL3(CAGA)12 luciferase). Conditions: A-204 reporter gene assay.
Type: cell-based
Source text: as §1, §2, §3, §4, §5, §6

Molecule	inhibition of GDF11 signaling
B1	potent inhibitor
B2	almost wild-type inhibition of GDF11
B3	almost wild-type inhibition of GDF11
B4	equivalent to the wild-type molecule

Same assay, conditions: Table 9; cell-based A-204 assay

Molecule	GDF11 Inhibition Activity
B1	+++ (Good (wild-type) activity (roughly 1 × 10^−8 KI))
B2	+++ (Good (wild-type) activity (roughly 1 × 10^−8 KI))
B5	+++ (Good (wild-type) activity (roughly 1 × 10^−8 KI))
B3	+++ (Good (wild-type) activity (roughly 1 × 10^−8 KI))
B4	+++ (Good (wild-type) activity (roughly 1 × 10^−8 KI))

The molecules below were run against T3, GDF11 (assay: Biacore assay, ActRIIB-Fc captured with anti-hFc antibody, ligand injected (Example 8)). Conditions: GDF11; Table 10.
Type: binding
Procedure: (§9) Binding of certain ActRIIB-Fc proteins and ActRIIB variant Fc fusion polypeptides to ligands was tested in a Biacore™ assay.
(§10) The ActRIIB-Fc variants or wild-type protein were captured onto the system using an anti-hFc antibody. Ligands were injected and flowed over the captured receptor proteins.

Molecule	Koff
B1	0.000113 s⁻¹
B2	0.000274 s⁻¹
B5	2.41e-05 s⁻¹
B3	0.000439 s⁻¹
B4	6.35e-05 s⁻¹

Same assay, conditions: cell-free Biacore assay, Example 8

Molecule	GDF11 binding
B2	retains myostatin and GDF11 binding
B3	retains myostatin and GDF11 binding
B4	retains ligand-binding activity that is similar to that of the ActRIIB(20-134)-hFc molecule

What follows are molecules tested against T1, GDF8 in the same assay as above. Conditions: GDF8; Table 10.
Type: binding
Procedure: as §9, §10

Molecule	Koff
B1	3.45e-05 s⁻¹
B2	0.0009 s⁻¹
B5	4.71e-05 s⁻¹
B3	0.00083 s⁻¹

Same assay, conditions: cell-free Biacore assay, Example 8

Molecule	myostatin (GDF8) binding
B2	retains myostatin and GDF11 binding
B3	retains myostatin and GDF11 binding

These molecules were tested against T2, activin A in the same assay as above. Conditions: Activin A; Table 10.
Type: binding
Procedure: as §9, §10

Molecule	Koff	KD (M)
B1	0.000159 s⁻¹	
B2		Low binding
B5	0.000325 s⁻¹	
B3		Low binding
B4	0.000346 s⁻¹	

Same assay, conditions: cell-free Biacore assay, Example 8

Molecule	activin A binding
B2	markedly decreased (non-quantifiable) binding to activin A
B3	markedly decreased (non-quantifiable) binding to activin A
B4	retains ligand-binding activity that is similar to that of the ActRIIB(20-134)-hFc molecule
